Assay results: the DeepSol protein solubility set

experiment: soluble on expression in E. coli; label from the status in PepcDB or PDB records

| Sequence | soluble on expression in E. coli |
| --- | --- |
| RSGVLITDKPKKKDKKEEPAALQTTVQSMLISRPRELEAEVVRFQNNREKWIAFVGLKDGRPYEIFTGIADDDEGIMVPKSVTHGKIIKNRDENGERHYDFQFCNKKGFKVTIEGLDSKFNPEYWNYAKLISGVLRYGMPIEQVVHLVQGMSLNDESINTWKNGVERALKRYLPNGTTLSGQVCPSCGQETLVYQEGCLLCTSCGASKCG | not soluble |
| MNLLERIKKLAKDRDVSIYQLEEEINIGRNTIYQWNKRTPSSDKLEAVANYFNVSVDYLLGRTENPNQAGAKPSDDLDDVLDNVMSFDGEPLDDHDREVIRAYLKGRFGK | not soluble |
| EAGAMDERTFGKSIEVYTRQICEELLTTAAGNTDAHYKTYRCPLCGNDSVRVFPKIVKCVTDGCGFKVFRELCGTLLSKEYIHALMTDGCTPLLCRLTGKSGKTFNARLKLDKDGGTSFVFDSKPRKPQT | not soluble |
| MSDLVSYHLDDGVATLTLNNGKVNAISPDVIIAFNAALDQAEKDRAIVIVTGQPGILSGGYDLKVMTSSAEAAINLVAQGSTLARRMLSHPFPIIVACPGHAVAKGAFLLLSADYRIGVAGPFSIGLNEVQIGMTMHHAGIELARDRLRKSAFNRSVINAEMFDPEGAMAAGFLDKVVSVEELQGAALAVAAQLKKI | not soluble |
| MSVSLEQTLGFRIKVTNVLDVVTEGRLYSFNSSNNTLTIQTTKKNQSPQNFKVIKCTFIKHLEVIGDKPSFNSFKKQQIKPSYVNVERVEKLLKESVIASKKKELLRGKGVSAEGQFIFDQIFKTIGDTKWVAKDIIILDDVKVQPPYKVEDIKVLHEGSNQSITLIQRIVERSWEQLEQDDGRKGG | soluble |
| MTSPITLDALKVLDAIERKKSFAAAADELFRVPSAISYTVNKLEDDLGIALFDRSKRKAELTSVGIMLVEQGRLILKATDELTHMAKQSAEGWELELRICIDSILLFQPIYTLIAQFQQEYPWINIRVTEEVFGGTWDALVAGRSDLIIGATGEPYNSDFSLYKLGNVDFVFVVAKDHALIKEQQPLSNEIIKKYPSVVVADSSRNLPGRSAGLLDGQSRITVSSIEKKIEAQLLGLGVGFLPIHRIKSQLESGQLVILALETTENRNSELCMAWRNDNQGKALAWFVSNIQQMAVKLI | not soluble |
| MGSDKIHHHHHHGCNQSSKSDTKKEVTSKVGTYASVDCSTFTKSKDLPKGASCGYLTVPEKHAIKGQSASKKTMEIAVLKIPATKTEAKADPVVYLQGGPGYSAIDSLEDFTQSKAKYLWNDRDFYLVDQRGTGHAKPAYKCTEFNTVKGSIEQVKACKARLKAKGVDFSAYQSVQSAHDFIMLRKALKLDSWNLYGASYGTRLAETIIREDSQGVRSVILDGVFPIEVNGLSDTPWATYATLDRIVANCDASINCASEILKPMIESIIERLQNQGEEQAAIRFVNYIASLAGDARVVPLILAIDKDLNIIINEKDNEEAEGYFAPMALSVVCAEEYAFLNQTALEGRNDKNWSTTTTLTVNKMFHEGFDIDSCKAWDVAAADSIETQAVTSNLPILVINGGNDHQTPPAWGELVVKNMPNAQLFTNPQGGHVQLTSQNPYRNCIDGITMAFLAAPDQKIKTQCTSMIPVFKYN | not soluble |
| GSHMARYDSLLQALGNTPLVGLQRLSPRWDDGRDGPHVRLWAKLEDRNPTGSIKDRPAVRMIEQAEADGLLRPGATILEPTSGNTGISLAMAARLKGYRLICVMPENTSVERRQLLELYGAQIIFSAAEGGSNTAVATAKELAATNPSWVMLYQYGNPANTDSHYCGTGPELLADLPEITHFVAGLGTTGTLMGTGRFLREHVANVKIVAAEPRYGEGVYALRNMDEGFVPELYDPEILTARYSVGAVDAVRRTRELVHTEGIFAGISTGAVLHAALGVGAGALAAGERADIALVVADAGWKYLSTGAYAGSLDDAETALEGQLWA | soluble |
| MPVNNENLTSVLDARPFELSEEQKSPLFKANLLAELVHHYQCNEMYRKFCQKNKFDPLVFDGEVADIPPIPVHIFKAIGHKLSSVSDDTIKAKLQSSATSGVPSTILLDKVTARRQTRAMARVMQEVLGPKRRPFCIMDIDPTSPNATNLGARIAAVKGYLNFASTSKYFIDADSPSAPLEFLEQKFVEHLNSLASEEPLIIFGFTFVLYHTVFKTLKDKGISFQLPKGSQVIHIGGWKKLESEKVDKITFNRDIASVLGISPDDVVDIYGFTEQMGLNYPDCKAGWKHIHAYSDVIIRDESNLEVCGPGKVGLLEFVSPLPHSYPGNVVLTDDLGVIEESLCECGKAGKRFKVIGRAKKAEVRGCGDVMSEKLTKKPSYKPLSQQEERLTIYHSPIFLDDTMLEHHHHHH | soluble |
